Target: T1, 丝氨酸蛋白酶抑制因子SPINK1的第10-19个氨基酸片段 (synthetic SPINK1 peptide, aa 10-19)
T1 sequence (peptide): SALALLSLSG
Experiment: antibody titer; method and coated antigen not stated there, taken to be ELISA on the coated immunogen peptide

- 抗体最低作用浓度: 0.0825 µg/mL
- 效价 (dilution factor (1:x)): 4000
B1: 单克隆抗体KZN2 (monoclonal antibody against SPINK1 produced by hybridoma CGMCC No.15800) (antibody, V domains shown)
VH: QVQLQQSGGGLVQPGGAMKLSCTASGFTFSDAWMYWVRQSPEKGLEWVAEIRNKAYNHATYYAESVKGRFTISGDDSKSSVYLQMNSLRAEDTGIYYCTTYDYWGQGTTVTVSS
VL: DIVMTQSPLSLPVSLGDQASISCRSSQSLVHGDGNTYLHWYLQKPGQSPNLLIYKISNRFSGVPDRFSGSGSGTDFTLKISRVEAEDLGVYFCSQNTHVPRTFGGGTKLEIK

— CN109776679A
